The values that follow come from the supplement of paper PMC12764529.

± gives the half width of the 95% confidence interval.

Series [1] is described as follows: folding stability dG unfold from trypsin proteolysis; higher = more stable. In outline:
(§1)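 How resistant each design was to proteolysis was captured as K50, inferred by Bayesian fitting of sequencing counts. Unfolding free energy was then derived relative to a sequence-predicted unfolded-state K50 and a shared folded-state K50, per protease or combined. Digestion used trypsin and chymotrypsin at 11 threefold-diluted concentrations plus a no-protease condition, on mini-proteins under 80 residues without cysteine in a PA-tagged cDNA display construct. Designs were kept only when AlphaFold2 dimer inter-PAE was above 15.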

The nature of series [2]: folding stability dG unfold from chymotrypsin proteolysis; higher = more stable. An outline of the steps: as §1
Series [3] is described as follows: folding stability dG unfold (combined trypsin and chymotrypsin); higher = more stable. In outline: as §1

Consider “SAMERVEIVVKVKVRPDMSLEELKERVERELRRLLEERGIELPEGAKITVEIVEETEDYVVVKVTIELPSAG [r14_735_TrROS_Hall]”, for which the “folding stability dG unfold” value worked out at 4.53 ± 0.24 kcal/mol in series [1], 2.91 ± 0.14 kcal/mol in series [2] and 4.4 ± 0.32 kcal/mol in series [3].
Regarding “SAMETYEYPVTGDSATFTVPVPPDHIAKVTVHYPSGSTDTVVPPGVTTTFTVPSSNATVTITIYPRSALSAG [r14_882_JUSTAS]”, the “folding stability dG unfold” value in series [1] stood at 1.01 ± 0.025 kcal/mol; in series [2] it was 1.53 ± 0.11 kcal/mol; in series [3] it was 1.34 ± 0.068 kcal/mol.
For “SAMEVIELEFPSVEELEAALKEKFNVEVEKLPDGTKRIKVEVDGELVLIEITDDKVRIRIISKEELEKLSAG [r14_402_TrROS_Hall]” the same measures were 3.05 ± 0.095 kcal/mol, 1.53 ± 0.041 kcal/mol and 2.42 ± 0.13 kcal/mol.
On the same counts, the results for “SAMEYTLEFDNLKGLTADEIEKAFRDEGYPDVKINGIRRNPDDWTITVHYGPGMPPNRVQNAIRKAIQESAG [r14_657_TrROS]” are 1.21 ± 0.045 kcal/mol, 1.87 ± 0.091 kcal/mol and 1.62 ± 0.11 kcal/mol.
For “SAMIEIPFSPDTPVEERLAMIKEAIEAAKAAGIEPKEITLIVPPDREDILEAVEEAGIPKERVKIKDQPSAG [r14_589_JUSTAS]” the same measures were 0.789 ± 0.045 kcal/mol, 1.49 ± 0.057 kcal/mol and 1.24 ± 0.07 kcal/mol.
As for “SAMIKVVLPGAKLEKVEVFPDKTVKAVFVAKDHLVEIYFDPETGKALIRVYDGEKEYEFVLDVHPDDVISAG [r14_218_TrMRF]”, the “folding stability dG unfold” value worked out at 3.47 ± 0.31 kcal/mol in series [1], 4.8 ± 0.25 kcal/mol in series [2] and 4.33 ± 0.4 kcal/mol in series [3].
As to “SAMILLIKIENKNDGKEFIIEITPNKITIYDKKTGKKYEITVDGNTITIKINGKTYKAKIKEVIPEEELSAG [r14_208_TrROS_Hall]”, the “folding stability dG unfold” value amounted to 3.23 ± 0.2 kcal/mol in series [1], 3.86 ± 0.096 kcal/mol in series [2] and 3.54 ± 0.49 kcal/mol in series [3].
On the same counts, the results for “SAMIVVPATFDDRTFVLRIERLPDGSYLVDVEDPDVSREAVVEALRELLPEDAKIVLDPETNLVYVSFDSAG [r14_370_TrMRF]” are 3.34 ± 0.11 kcal/mol, 3.73 ± 0.052 kcal/mol and 3.55 ± 0.086 kcal/mol.
In the case of “SAMKIIKINGKEVLLVKNENGEILIFVKNKKTNKYYLVKIEIKDGKIKIVEVKPIKTYSLEELLKEELLSAG [r14_384_TrROS_Hall]”, the “folding stability dG unfold” value in series [1] stood at 3.22 ± 0.16 kcal/mol; in series [2] it was 3.45 ± 0.023 kcal/mol; in series [3], 3.42 ± 0.11 kcal/mol.
On the same counts, the results for “SAMKIKIKVIGVLKPENHALIFLELDDSIPPEIPVVIRIKNENGEILEIPIEGNRALLVVDDRKIEILTSAG [r14_350_TrMRF]” are 1.82 ± 0.08 kcal/mol, 1.67 ± 0.072 kcal/mol and 1.73 ± 0.12 kcal/mol.
On the same counts, the results for “SAMKIKVPPGAEIITEDGEKIEPGQEVEVTDIEFDEETGEVHITVKIKNPETGEEIEEKVTIRFPKEEESAG [r14_258_TrROS_Hall]” are 1.29 ± 0.11 kcal/mol, 0.977 ± 0.042 kcal/mol and 1.09 ± 0.15 kcal/mol.
For “SAMKITEITYDKETNTITITVEIKLPPGVKKIKLKLFIDGAEIEEITMEVDEETGTVRITLKIRIPKDASAG [r14_244_TrROS_Hall]” the same measures were 4.9 ± 0.88 kcal/mol, 6.06 ± 0.78 kcal/mol and more than 6 kcal/mol.
On to “SAMKKIKLSPEALELAKKLPPDYKVTEIKVEKLEDGTVVVTLTVEKTNENGEKEKVELTIVLDKDGKPVSAG [r14_420_TrROS_Hall]”, for which the figures for the “folding stability dG unfold” value in series [1], in series [2] and in series [3] were 0.619 ± 0.065 kcal/mol, 0.0295 ± 0.46 kcal/mol and 0.757 ± 0.37 kcal/mol, respectively.
On the same counts, the results for “SAMKKTETRVLEIRIGDYLAKIFLTEYEDGRVETLIEVYGPDPAVVEEVKDFLEKLDPDLEITEIVVLDSAG [r14_611_TrMRF]” are 3.13 ± 0.072 kcal/mol, 2.23 ± 0.032 kcal/mol and 2.68 ± 0.12 kcal/mol.
On the same counts, the results for “SAMKPFPAKEAIEQILEEMEDMPLPPGQEEVEFQIRLPDDGAPVQISIERNPGKWKIEIYVGNKPIWITSAG [r14_199_TrROS]” are 1.7 ± 0.082 kcal/mol, 2.43 ± 0.14 kcal/mol and 2.05 ± 0.12 kcal/mol.
On the same counts, the results for “SAMKPGEKVKIKIITFEKKKDPKTGEEKIEMKEIEIEATITEVEEKDGKVTVKIKIENLPPGAMIIIEKSAG [r14_412_TrROS_Hall]” are 2.05 ± 0.069 kcal/mol, 3.64 ± 0.087 kcal/mol and 3.18 ± 0.086 kcal/mol.
Take “SAMKTEVIEFENFTIVVEELPDGSKKIIILFENPEKAKEALEKNPWIKEFIAEAEKEGYDVELAVVEPESAG [r14_873_TrMRF]”: the entries for the “folding stability dG unfold” value in series [1], in series [2] and in series [3] were 3.21 ± 0.12 kcal/mol, 3.31 ± 0.042 kcal/mol and 3.21 ± 0.085 kcal/mol, respectively.
On the same counts, the results for “SAMKTVTIKVTVEVTKNENGEEVKTVTVTLTLPEEEMTEEQLKELAKELADKLAEENNLTVKITKIEVTSAG [r14_190_TrROS_Hall]” are 3.27 ± 0.19 kcal/mol, 2.93 ± 0.1 kcal/mol and 3.08 ± 0.06 kcal/mol.
For “SAMKTYTLPNATITVETLPGDNTIVVTVTDPESGKTTTTTVSLDDPSLTIENIIARIEEQIKAGKPVSLSAG [r14_157_JUSTAS]” the same measures were 2.33 ± 0.1 kcal/mol, 2.16 ± 0.054 kcal/mol and 2.16 ± 0.14 kcal/mol.
Take “SAMKVEIVEVKKNEDGSEEITIKIVVPDDKDMTPEELAALLKKEFGVDEVKVEVVDENGYKVITITIKRSAG [r14_228_TrROS_Hall]”: the figures for the “folding stability dG unfold” value in series [1], in series [2] and in series [3] were 4.03 ± 0.26 kcal/mol, 3.55 ± 0.15 kcal/mol and 3.9 ± 0.24 kcal/mol, respectively.
On the same counts, the results for “SAMKVTITVTKHTLPDGTPYYTVTITDPSTGKTFSGPVSSEEEAKATAQALADKIEAEGTPVTITFTDDSAG [r14_263_JUSTAS]” are 3.97 ± 0.23 kcal/mol, 4.03 ± 0.086 kcal/mol and 3.99 ± 0.14 kcal/mol.
On the same counts, the results for “SAMKWSEVVVSYPSDRWYAEIYTPGPGGELTSVSYREFDSLEELEQWIEEKAPPGEVEVKREPAPPELLSAG [r14_964_JUSTAS]” are 1.17 ± 0.033 kcal/mol, 0.722 ± 0.094 kcal/mol and 0.967 ± 0.051 kcal/mol.
On the same counts, the results for “SAMKYTVKLPPGAEPIQPEELAALPYVEVVEVEISDGEDGTRTLTITVSPDVPEENVEKLKEYIEKKLKSAG [r14_421_JUSTAS]” are 2.93 ± 0.077 kcal/mol, 3.17 ± 0.043 kcal/mol and 3.12 ± 0.085 kcal/mol.
On to “SAMKYVELKLTITVPKEKEEEIEKLKKALEKLGAEIVSVEVEYDEETEEVTVTVTIRIENLSEEELKKASAG [r14_956_TrROS_Hall]”, for which the “folding stability dG unfold” value worked out at 1.97 ± 0.048 kcal/mol in series [1], 2.97 ± 0.08 kcal/mol in series [2] and 2.69 ± 0.086 kcal/mol in series [3].
On the same counts, the results for “SAMLRIRVEYEDGRVEDIVIPLAGEDPPFGKEAVEEAAERIAKEVEEKYGLKNVKTEVEAFPVSPEELLSAG [r14_378_TrMRF]” are 0.326 ± 0.096 kcal/mol, 1.06 ± 0.2 kcal/mol and 0.818 ± 0.1 kcal/mol.
Take “SAMMYLIRVTITVKNKETGEEKEIEVEILIEKEEGELTEEEIEELARKLAEELGLEVEEIKIEIEPLPESAG [r14_278_TrROS_Hall]”: the “folding stability dG unfold” value in series [1] was found to be 4.34 ± 0.2 kcal/mol; in series [2], 5.28 ± 0.16 kcal/mol; in series [3] it was 5.3 ± 0.24 kcal/mol.
On to “SAMNLRFPLSTEALAKLLENLTPDQTLELRVRIGDRWVRVRLEIHRIERKEDELRVEVTLEVEPLRPEDSAG [r14_335_TrMRF]”, for which the results for the “folding stability dG unfold” value in series [1], in series [2] and in series [3] were 3.33 ± 0.095 kcal/mol, 3.34 ± 0.06 kcal/mol and 3.35 ± 0.19 kcal/mol, respectively.
On the same counts, the results for “SAMPKPALTIEIPLPNGQTVRIDVYYDPETGTYTVNVTRTLPNGEPFTRTYTVESPEEAIKNIEVTDFGSAG [r14_749_TrMRF]” are 3.29 ± 0.13 kcal/mol, 3.18 ± 0.078 kcal/mol and 3.24 ± 0.12 kcal/mol.
On the same counts, the results for “SAMPLDDLPAEQIRELVRSIMRKHGMPPDNVEVDVEVQRPPDGYYYITVDVEMRMNGKERKYKFTIWIPSAG [r14_703_TrROS]” are 2.99 ± 0.072 kcal/mol, 4.17 ± 0.05 kcal/mol and 3.75 ± 0.1 kcal/mol.
Take “SAMPVFTFPVEIPGPEYTPEEIVAILKEAAAKLNLPVDEEVIRELAEKALAEGTTVADIIEEILKRGLGSAG [r14_364_JUSTAS]”: the “folding stability dG unfold” value worked out at 3.07 ± 0.094 kcal/mol in series [1], 1.88 ± 0.045 kcal/mol in series [2] and 2.52 ± 0.077 kcal/mol in series [3].
On the same counts, the results for “SAMPVVTLKAKVTIHSDPNGIEEKEIEITVTFPDPNVGLEEAKKKAEEAIKEYAEKNGLKIELEEITIESAG [r14_190_JUSTAS]” are 1.19 ± 0.08 kcal/mol, 2.06 ± 0.047 kcal/mol and 1.88 ± 0.09 kcal/mol.
On to “SAMRAAVLAAAEEITAHPEFEAVGISPDGTFLFRNPATGKVYRIRLEAEDDGEGVIVRVPSIEPLDAPDSAG [r14_20_TrMRF]”, for which the “folding stability dG unfold” value in series [1] was determined as 1.43 ± 0.028 kcal/mol; in series [2], 1.92 ± 0.051 kcal/mol; in series [3], 1.75 ± 0.087 kcal/mol.
For “SAMRILIEFDSPEEAEEALRKLVEEAGLVLEEIKVEIAPAKVTTTTPDGKKVTKTKYFALAEIKLSKKESAG [r14_773_TrMRF]” the same measures were 1.47 ± 0.067 kcal/mol, 2.19 ± 0.086 kcal/mol and 2.12 ± 0.19 kcal/mol.
As for “SAMRPGDPWKPVEERKIPIRNPNNGKEIEIEVYRFKDDGMYMVSIHFPDGKSIQFMVPPGDVEEIIEQISAG [r14_240_TrROS]”, the “folding stability dG unfold” value in series [1] is 1.29 ± 0.037 kcal/mol; in series [2], 3.171 ± 0.016 kcal/mol; in series [3], 2.8 ± 0.058 kcal/mol.
On the same counts, the results for “SAMSLTIETDGSLEDVIAALKAFLEANPNVPFIISPPNGEVKVIDLGLADKILVIPDPDGKVRITVINPSAG [r14_807_TrMRF]” are 1.76 ± 0.023 kcal/mol, 1.7 ± 0.024 kcal/mol and 1.75 ± 0.036 kcal/mol.
